Biological target: prostate specific membrane antigen (human (human prostate LNCaP cells)) (UniProt Q04609)
Assay: cell-based or functional assay

Chain of prostate specific membrane antigen (human (human prostate LNCaP cells)) (Q04609 whole entry): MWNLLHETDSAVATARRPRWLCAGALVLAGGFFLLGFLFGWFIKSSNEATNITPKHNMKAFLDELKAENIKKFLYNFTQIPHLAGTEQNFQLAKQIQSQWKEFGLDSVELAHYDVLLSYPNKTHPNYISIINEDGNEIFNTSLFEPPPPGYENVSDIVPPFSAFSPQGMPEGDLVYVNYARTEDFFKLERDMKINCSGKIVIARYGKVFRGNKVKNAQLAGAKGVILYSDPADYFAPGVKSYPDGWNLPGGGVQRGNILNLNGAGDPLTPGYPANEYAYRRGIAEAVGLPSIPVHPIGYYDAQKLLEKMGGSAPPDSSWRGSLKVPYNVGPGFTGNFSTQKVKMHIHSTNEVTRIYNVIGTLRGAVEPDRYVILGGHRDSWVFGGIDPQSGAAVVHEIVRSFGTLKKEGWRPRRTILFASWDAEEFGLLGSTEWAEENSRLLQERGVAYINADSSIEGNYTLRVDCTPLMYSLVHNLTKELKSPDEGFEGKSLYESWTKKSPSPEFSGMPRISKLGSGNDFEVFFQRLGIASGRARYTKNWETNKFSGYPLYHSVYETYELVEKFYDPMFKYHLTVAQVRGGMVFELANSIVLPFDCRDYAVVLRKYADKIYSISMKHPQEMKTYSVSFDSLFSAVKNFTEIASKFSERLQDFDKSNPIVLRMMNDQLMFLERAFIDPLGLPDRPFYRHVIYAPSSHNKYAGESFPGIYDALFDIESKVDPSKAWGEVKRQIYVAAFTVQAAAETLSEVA

IC50 (NAALADase assay in human prostate LNCaP cells, [N-acetyl aspartyl 3H-glutamate]): 9.3 nM | IC50 LNCaP cells (NAALADase assay, [N-acetyl aspartyl 3H-glutamate] substrate, LNCaP homogenized cell membranes): 10.5 nM
Substance: [DUPA-6-Ahx-Lys(DOTA)-6-Ahx-RM2] (peptide)
